Test results from PMC3973330, “A highly divergent archaeo-eukaryotic primase from the Thermococcus nautilus plasmid, pTN2”.

T1: PolpTN2delta311-923 (Thermococcus nautilus (plasmid pTN2), UniProt D6MY06 1-310)
T1 sequence: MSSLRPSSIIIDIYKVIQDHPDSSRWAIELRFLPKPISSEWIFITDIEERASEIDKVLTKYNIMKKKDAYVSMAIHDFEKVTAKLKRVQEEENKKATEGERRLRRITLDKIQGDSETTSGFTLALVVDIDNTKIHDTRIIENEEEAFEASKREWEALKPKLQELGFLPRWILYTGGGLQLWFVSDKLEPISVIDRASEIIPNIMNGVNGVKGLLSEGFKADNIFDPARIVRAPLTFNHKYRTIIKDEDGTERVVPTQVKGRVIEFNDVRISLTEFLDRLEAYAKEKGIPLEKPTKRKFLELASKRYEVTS


Molecular target: T1, PolpTN2delta311-923
Test: EMSA; 10 mM Mg2+; EMSA: 50 mM Tris-HCl pH 8, 20 mM KCl, 10 mM MgCl2, 7.5 nM probe, 30 min at 65 C; 10% native PAGE in TBE
Conditions: protein: recombinant; tags: His-tag (pET30, NdeI/XhoI); label: 32P; single strand

| Binder | binding result |
| --- | --- |
| AGAGGGTTCAAAAAATGGTTTCACCCCAAA (ssDNA) [30 DNA] | binds |
| AGAGGGUUCAAAAAAUGGUUUCACCCCAAA (ssRNA) [30 RT] | binds |
